± gives the uncertainty stated by the source.
B1: A-7-D; numbered along this chain (parent)
chain: EASNCFAIRHFENKFAVETLICFNLFLNSQEKHY

Variants of: B1
Experiment: amyloid nucleation score relative to WT ADan (yeast Sup35 reporter selection) (log enrichment difference); higher = more amyloid nucleation
Method: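 Deep mutational scan of the ADan peptide fused to the Sup35 nucleation domain (SupN) in S. cerevisiae [psi-pin-], covering all single amino-acid substitutions and stop truncations (truncations = sequence up to the stop). After 24 h Cu2+ induction, cells were selected on -ADE-URA plates for 7 d at 30 °C. The nucleation score is log enrichment (output/input, deep sequencing) minus that of WT ADan, as the error-weighted mean of 3 biological replicates (DiMSum).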

| Variant | amyloid nucleation score |
| --- | --- |
| EASNCFDIRHFENKFAVETLICFNLFLNSQEKHY [A7D] | -0.2 ± 0.14 |
| EASNCFCIRHFENKFAVETLICFNLFLNSQEKHY [A7C] | 0.601 ± 0.12 |
| EASNCFYIRHFENKFAVETLICFNLFLNSQEKHY [A7Y] | 0.529 ± 0.13 |
| EASNCFIIRHFENKFAVETLICFNLFLNSQEKHY [A7I] | -0.415 ± 0.14 |
| EASNCFTIRHFENKFAVETLICFNLFLNSQEKHY [A7T] | -0.0425 ± 0.13 |
| EASNCFGIRHFENKFAVETLICFNLFLNSQEKHY [A7G] | 0.45 ± 0.082 |
| EASNCFEIRHFENKFAVETLICFNLFLNSQEKHY [A7E] | 0.0742 ± 0.14 |
| EASNCFQIRHFENKFAVETLICFNLFLNSQEKHY [A7Q] | 0.436 ± 0.18 |
| EASNCFNIRHFENKFAVETLICFNLFLNSQEKHY [A7N] | 0.744 ± 0.13 |
| EASNCFVIRHFENKFAVETLICFNLFLNSQEKHY [A7V] | 0.125 ± 0.1 |
| EASNCFHIRHFENKFAVETLICFNLFLNSQEKHY [A7H] | 0.394 ± 0.15 |
| EASNCFMIRHFENKFAVETLICFNLFLNSQEKHY [A7M] | -0.0811 ± 0.16 |
| EASNCFKIRHFENKFAVETLICFNLFLNSQEKHY [A7K] | 0.0182 ± 0.15 |
| EASNCFLIRHFENKFAVETLICFNLFLNSQEKHY [A7L] | -1.17 ± 0.099 |
| EASNCFWIRHFENKFAVETLICFNLFLNSQEKHY [A7W] | -0.43 ± 0.15 |
| EAINCFAIRHFENKFAVETLICFNLFLNSQEKHY [S3I] | -1.1 ± 0.23 |
| EAYNCFAIRHFENKFAVETLICFNLFLNSQEKHY [S3Y] | 0.296 ± 0.25 |
| EALNCFAIRHFENKFAVETLICFNLFLNSQEKHY [S3L] | -0.738 ± 0.16 |
| EAKNCFAIRHFENKFAVETLICFNLFLNSQEKHY [S3K] | 0.21 ± 0.27 |
| EAQNCFAIRHFENKFAVETLICFNLFLNSQEKHY [S3Q] | -0.501 ± 0.37 |
| EAWNCFAIRHFENKFAVETLICFNLFLNSQEKHY [S3W] | -0.398 ± 0.25 |
| EAHNCFAIRHFENKFAVETLICFNLFLNSQEKHY [S3H] | -0.359 ± 0.39 |
| EAMNCFAIRHFENKFAVETLICFNLFLNSQEKHY [S3M] | 0.163 ± 0.25 |
| EAGNCFAIRHFENKFAVETLICFNLFLNSQEKHY [S3G] | 0.112 ± 0.14 |

| Variant | amyloid nucleation score |
| --- | --- |
| EAFNCFAIRHFENKFAVETLICFNLFLNSQEKHY [S3F] | -0.00261 ± 0.19 |
| EAENCFAIRHFENKFAVETLICFNLFLNSQEKHY [S3E] | 0.224 ± 0.23 |
| EARNCFAIRHFENKFAVETLICFNLFLNSQEKHY [S3R] | -0.46 ± 0.17 |
| EADNCFAIRHFENKFAVETLICFNLFLNSQEKHY [S3D] | 0.481 ± 0.22 |
| EANNCFAIRHFENKFAVETLICFNLFLNSQEKHY [S3N] | 0.0448 ± 0.23 |
| EATNCFAIRHFENKFAVETLICFNLFLNSQEKHY [S3T] | -0.349 ± 0.21 |
| EAANCFAIRHFENKFAVETLICFNLFLNSQEKHY [S3A] | 0.258 ± 0.18 |
| EAVNCFAIRHFENKFAVETLICFNLFLNSQEKHY [S3V] | -0.392 ± 0.16 |
| EACNCFAIRHFENKFAVETLICFNLFLNSQEKHY [S3C] | 0.601 ± 0.2 |
| EAPNCFAIRHFENKFAVETLICFNLFLNSQEKHY [S3P] | 0.338 ± 0.36 |
| ETSNCFAIRHFENKFAVETLICFNLFLNSQEKHY [A2T] | -0.12 ± 0.14 |
| EKSNCFAIRHFENKFAVETLICFNLFLNSQEKHY [A2K] | -0.117 ± 0.23 |
| ECSNCFAIRHFENKFAVETLICFNLFLNSQEKHY [A2C] | 0.581 ± 0.19 |
| EMSNCFAIRHFENKFAVETLICFNLFLNSQEKHY [A2M] | -1.1 ± 0.24 |
| EFSNCFAIRHFENKFAVETLICFNLFLNSQEKHY [A2F] | -1.28 ± 0.2 |
| EPSNCFAIRHFENKFAVETLICFNLFLNSQEKHY [A2P] | 0.0538 ± 0.21 |
| ELSNCFAIRHFENKFAVETLICFNLFLNSQEKHY [A2L] | -1.51 ± 0.2 |
| ENSNCFAIRHFENKFAVETLICFNLFLNSQEKHY [A2N] | 0.137 ± 0.21 |
| EWSNCFAIRHFENKFAVETLICFNLFLNSQEKHY [A2W] | -0.655 ± 0.21 |
| EESNCFAIRHFENKFAVETLICFNLFLNSQEKHY [A2E] | 0.464 ± 0.2 |
| EGSNCFAIRHFENKFAVETLICFNLFLNSQEKHY [A2G] | 0.0812 ± 0.13 |
| EVSNCFAIRHFENKFAVETLICFNLFLNSQEKHY [A2V] | -1.22 ± 0.19 |
| EHSNCFAIRHFENKFAVETLICFNLFLNSQEKHY [A2H] | 0.353 ± 0.26 |
| EISNCFAIRHFENKFAVETLICFNLFLNSQEKHY [A2I] | -1.13 ± 0.23 |

| Variant | amyloid nucleation score |
| --- | --- |
| EDSNCFAIRHFENKFAVETLICFNLFLNSQEKHY [A2D] | 0.518 ± 0.22 |
| EYSNCFAIRHFENKFAVETLICFNLFLNSQEKHY [A2Y] | -0.52 ± 0.22 |
| EQSNCFAIRHFENKFAVETLICFNLFLNSQEKHY [A2Q] | 0.125 ± 0.26 |
| ESSNCFAIRHFENKFAVETLICFNLFLNSQEKHY [A2S] | 0.208 ± 0.12 |
| ERSNCFAIRHFENKFAVETLICFNLFLNSQEKHY [A2R] | -0.078 ± 0.14 |
| EASNFFAIRHFENKFAVETLICFNLFLNSQEKHY [C5F] | 0.0304 ± 0.15 |
| EASNTFAIRHFENKFAVETLICFNLFLNSQEKHY [C5T] | -0.0743 ± 0.15 |
| EASNYFAIRHFENKFAVETLICFNLFLNSQEKHY [C5Y] | -0.00901 ± 0.15 |
| EASNIFAIRHFENKFAVETLICFNLFLNSQEKHY [C5I] | -0.166 ± 0.15 |
| EASNLFAIRHFENKFAVETLICFNLFLNSQEKHY [C5L] | -0.0462 ± 0.12 |
| EASNAFAIRHFENKFAVETLICFNLFLNSQEKHY [C5A] | 0.274 ± 0.14 |
| EASNSFAIRHFENKFAVETLICFNLFLNSQEKHY [C5S] | 0.0127 ± 0.12 |
| EASNKFAIRHFENKFAVETLICFNLFLNSQEKHY [C5K] | -0.223 ± 0.21 |
| EASNMFAIRHFENKFAVETLICFNLFLNSQEKHY [C5M] | 0.796 ± 0.19 |
| EASNDFAIRHFENKFAVETLICFNLFLNSQEKHY [C5D] | 0.699 ± 0.18 |
| EASNPFAIRHFENKFAVETLICFNLFLNSQEKHY [C5P] | 0.685 ± 0.19 |
| EASNNFAIRHFENKFAVETLICFNLFLNSQEKHY [C5N] | 0.0664 ± 0.2 |
| EASNRFAIRHFENKFAVETLICFNLFLNSQEKHY [C5R] | 0.0293 ± 0.12 |
| EASNWFAIRHFENKFAVETLICFNLFLNSQEKHY [C5W] | -1.36 ± 0.21 |
| EASNQFAIRHFENKFAVETLICFNLFLNSQEKHY [C5Q] | 0.396 ± 0.27 |
| EASNEFAIRHFENKFAVETLICFNLFLNSQEKHY [C5E] | 0.484 ± 0.21 |
| EASNVFAIRHFENKFAVETLICFNLFLNSQEKHY [C5V] | -0.199 ± 0.12 |
| EASNHFAIRHFENKFAVETLICFNLFLNSQEKHY [C5H] | 0.0549 ± 0.26 |
| EASNGFAIRHFENKFAVETLICFNLFLNSQEKHY [C5G] | 0.214 ± 0.11 |
